These results are taken from PMC9079088, “FBXO2 targets glycosylated SUN2 for ubiquitination and degradation to promote ovarian cancer development” (Cell Death & Disease, 2022).

The test addresses T1, HA-SUN2 (human (cDNA from 293T or A2780 cells), UniProt Q9UH99 1-717, N-glycosylation (sites not given)).
T1 construct: SAD1/UNC84 domain protein-2 (SUN2), cloned from cDNAs of 293T or A2780 cells; also called SAD1/UNC84 domain protein-2; source: HEK293T, transiently transfected; immunoprecipitated with anti-HA resin and eluted with HA peptide, or in lysate
T1 sequence (looked up): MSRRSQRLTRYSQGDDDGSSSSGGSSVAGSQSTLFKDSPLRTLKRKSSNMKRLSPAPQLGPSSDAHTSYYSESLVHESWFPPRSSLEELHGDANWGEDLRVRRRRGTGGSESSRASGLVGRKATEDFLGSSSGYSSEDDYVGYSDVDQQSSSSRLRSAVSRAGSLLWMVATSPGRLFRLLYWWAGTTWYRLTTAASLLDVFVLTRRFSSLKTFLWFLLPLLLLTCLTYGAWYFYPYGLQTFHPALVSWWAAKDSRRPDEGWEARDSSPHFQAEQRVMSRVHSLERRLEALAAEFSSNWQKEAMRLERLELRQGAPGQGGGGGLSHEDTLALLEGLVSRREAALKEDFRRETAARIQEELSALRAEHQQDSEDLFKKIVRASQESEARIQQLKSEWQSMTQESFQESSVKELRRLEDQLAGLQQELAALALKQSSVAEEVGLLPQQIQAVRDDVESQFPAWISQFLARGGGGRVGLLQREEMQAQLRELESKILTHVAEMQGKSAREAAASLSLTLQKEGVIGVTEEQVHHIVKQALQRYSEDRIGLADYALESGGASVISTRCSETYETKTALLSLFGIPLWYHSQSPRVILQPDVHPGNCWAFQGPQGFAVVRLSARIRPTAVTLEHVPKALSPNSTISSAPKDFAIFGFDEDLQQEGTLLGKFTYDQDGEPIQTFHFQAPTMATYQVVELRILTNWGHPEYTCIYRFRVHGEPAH
Nature of the test: pull-down; GST or GST-FBXO2 incubated with HA-SUN2 (anti-HA resin, eluted with HA peptide) in PB buffer (20 mM HEPES pH 7.5, 130 mM KCl, 5 mM MgCl2, 1 mM DTT, 0.5 mM EDTA, 0.05% NP40) at 30 °C for 2 h, then glutathione beads; the legend speaks of lysed cells. The conditions noted are these: both partners purified.

B1: GST-FBXO2 WT (natural protein, human, UniProt Q9UK22 1-296, looked up)
chain: MDGDGDPESVGQPEEASPEEQPEEASAEEERPEDQQEEEAAAAAAYLDELPEPLLLRVLAALPAAELVQACRLVCLRWKELVDGAPLWLLKCQQEGLVPEGGVEEERDHWQQFYFLSKRRRNLLRNPCGEEDLEGWCDVEHGGDGWRVEELPGDSGVEFTHDESVKKYFASSFEWCRKAQVIDLQAEGYWEELLDTTQPAIVVKDWYSGRSDAGCLYELTVKLLSEHENVLAEFSSGQVAVPQDSDGGGWMEISHTFTDYGPGVRFVRFEHGGQDSVYWKGWFGARVTNSSVWVEP
notes: F-box protein FBXO2, human; also called GST tagged FBXO2
In the case of B1, the binding result was “binds”.
